Legend:
[1] = Pharmacokinetic test in a mouse model after intratracheal nebulized administration; type: in vivo, C57BL6/J mice; settings: mice, ADC-2 100 µg i.t. once; serum, BALF, lung tissue
Excerpt: Mice received intratracheal (i.t.) nebulized administration. […] Following blood collection, the mice were anesthetized and immobilized. […] Table 4. Administration scheme

[2] = target: T1, human-derived IL-4Rα on expressing cells (human, UniProt P24394 26-825); assay: flow cytometry on TF-1 cells expressing IL-4Rα, anti-His-FITC detection
T1 sequence (looked up): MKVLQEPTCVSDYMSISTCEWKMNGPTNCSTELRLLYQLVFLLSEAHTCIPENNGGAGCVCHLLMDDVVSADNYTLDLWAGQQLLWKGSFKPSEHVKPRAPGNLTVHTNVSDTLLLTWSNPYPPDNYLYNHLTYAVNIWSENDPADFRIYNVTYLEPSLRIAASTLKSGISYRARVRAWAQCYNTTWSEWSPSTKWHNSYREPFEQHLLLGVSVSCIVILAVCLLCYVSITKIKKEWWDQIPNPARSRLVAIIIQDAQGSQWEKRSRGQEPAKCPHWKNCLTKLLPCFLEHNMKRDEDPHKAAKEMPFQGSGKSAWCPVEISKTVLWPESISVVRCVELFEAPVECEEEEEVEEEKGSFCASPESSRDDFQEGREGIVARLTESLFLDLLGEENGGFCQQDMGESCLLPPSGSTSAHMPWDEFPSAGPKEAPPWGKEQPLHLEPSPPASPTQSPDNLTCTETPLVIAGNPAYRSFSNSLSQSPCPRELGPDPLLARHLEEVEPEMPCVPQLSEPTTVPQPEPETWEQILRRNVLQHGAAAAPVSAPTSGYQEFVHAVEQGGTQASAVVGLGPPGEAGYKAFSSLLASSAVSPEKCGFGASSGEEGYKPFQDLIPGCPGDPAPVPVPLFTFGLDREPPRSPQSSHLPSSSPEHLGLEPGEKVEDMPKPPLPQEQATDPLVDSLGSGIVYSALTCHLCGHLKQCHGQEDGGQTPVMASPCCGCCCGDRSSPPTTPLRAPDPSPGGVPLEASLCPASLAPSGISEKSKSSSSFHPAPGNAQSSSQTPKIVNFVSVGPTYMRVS

[3] = target: Biotin-labeled human-derived IL-4Rα protein (SinoBiological, CAT# 10402-H08H-B) (human) (UniProt P24394); assay: SPR, Biacore 8K, biotin-hIL-4Rα captured on SA chip, test protein as analyte
[4] = target: T1, human-derived IL-4Rα on expressing cells; assay: cell-based or functional assay
[5] = target: T1, human-derived IL-4Rα on expressing cells; assay: flow cytometry on TF-1 cells expressing IL-4Rα, anti-hFab-FITC detection
[6] = target: T2, Biotin-labeled human-derived IL-4Rα protein (SinoBiological, CAT# 10402-H08H-B) (human, UniProt P24394 26-232, biotin-labeled (site not stated)); assay: SPR, Biacore 8K, biotin-hIL-4Rα captured on SA chip, test protein as analyte
T2 construct: Bought reagent, captured on an SA sensor chip; also called hIL-4Rα; human-derived IL-4Rα antigen protein
T2 sequence (looked up): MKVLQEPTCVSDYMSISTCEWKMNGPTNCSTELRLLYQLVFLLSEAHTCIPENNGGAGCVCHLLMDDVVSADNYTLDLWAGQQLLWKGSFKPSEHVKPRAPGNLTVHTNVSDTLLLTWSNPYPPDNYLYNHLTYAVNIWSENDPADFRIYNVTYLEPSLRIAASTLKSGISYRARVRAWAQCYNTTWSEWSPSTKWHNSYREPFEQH

In the case of `CCCC1O[C@@H]2C[C@H]3[C@@H]4CCC5=CC(=O)C=C[C@]5(C)[C@H]4[C@@H](O)C[C@]3(C)[C@]2(C(=O)CO)O1` (some centres unmarked) [budesonide], the “distribution / exposure after intratracheal administration (in words)” value [1] is reported as “very low in all tissues”.

Molecule AZD1402-TAG (designed binder) has an EC50 [2] of 0.0124 nM, a Kd [3] of 0.0213 nM and a koff [3] of 0.000102 s⁻¹. For the same molecule, the kon [3] was 4.77e+06 M⁻¹ s⁻¹.

B1: antibody-drug conjugate ADC-2 (Fab, V domains shown)
VH: EVQLVESGGGLVQPGGSLRLSCAASGFTFSDYGMHWVRQAPGKGLEWVAFISSGSSIIYYADIVKGRSTISRDNAKNTLYLQMNSLRAEDTAVYYCTRGNKRGFFDYWGQGTLVTVSS
VL: EIVLTQSPATLSLSPGERATLSCRASSSVPYMYWYQQKPGQAPRLLIYLTSNLASGIPARFSGSGSGTDFTLTISSLEPEDFAVYYCQQWRAYPPMLTFGGGTKVEIKR
modifications: budesonide drug-linker (compound 2, maleimide) conjugated after TCEP reduction of 25G7-Fab; conjugated residues and drug load not stated
In the case of B1, the “IC50 values for blocking the IL-4 signaling pathway (nM); HEK-Blue IL-4/IL-13 STAT6-SEAP reporter cells” value [4] is reported as 0.68 nM and the “IC50 values for blocking the IL-13 signaling pathway (nM); HEK-Blue IL-4/IL-13 STAT6-SEAP reporter cells” value [4] is reported as 10.6 nM.

B2: hu25G7 (antibody, human IgG4 S228P, kappa, V domains shown)
VH: B1 VH
VL: B1 VL
notes: Full-length humanized anti-IL-4R IgG4 antibody
B2 gave an EC50 [5] of 0.247 nM.

B3: 25G7-Fab (Fab, V domains shown)
VH: B1 VH
VL: B1 VL
notes: also called naked anti-25G7-Fab; naked antibody 25G7-Fab
With B3 the “IC50 values for blocking the IL-4 signaling pathway (nM); HEK-Blue IL-4/IL-13 STAT6-SEAP reporter cells” value [4] was 0.61 nM, the “IC50 values for blocking the IL-13 signaling pathway (nM); HEK-Blue IL-4/IL-13 STAT6-SEAP reporter cells” value [4] was 14.6 nM and the EC50 [5] was 0.243 nM. For the same molecule, the Kd [6] was 0.0439 nM, the koff [6] was 0.000206 s⁻¹ and the kon [6] was 4.69e+06 M⁻¹ s⁻¹.
